The numbers were not newly measured in paper PMC7226360, which cites them from elsewhere.

In this series the target is NEDD8 (Homo sapiens) (UniProt Q15843).
Sequence of NEDD8 (Homo sapiens) (Q15843 1-76): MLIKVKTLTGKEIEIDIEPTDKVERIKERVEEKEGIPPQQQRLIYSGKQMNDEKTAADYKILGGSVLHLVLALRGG

Sequence of KHNYN 627-678 (O15037 627-678): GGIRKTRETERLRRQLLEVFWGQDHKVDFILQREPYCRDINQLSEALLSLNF

By Kd is commonly meant the free concentration of one partner at which half of the binding sites on the other are occupied at equilibrium, for simple one-to-one binding. For KHNYN 627-678 (from UniProt O15037), the equilibrium dissociation constant (Kd) was 24 µM.
